# Laboratory results taken from patent publication US20170189507A1.
# Target: HLA-A*24 (human)
# Test: UV-ligand exchange ELISA
row,peptide exchange yield,Binder
1,> 75%,VYQGHTALL [peptide SEQ ID No 277]
2,50 to 75%,NYYEVHKELF [peptide SEQ ID No 270]
3,20 to 49%,PYRLIFEKF [peptide SEQ ID No 281]
4,50 to 75%,QYLGQIQHI [peptide SEQ ID No 268]
5,50 to 75%,TFSVSSHLF [peptide SEQ ID No 222]
6,50 to 75%,HYPPVQVLF [peptide SEQ ID No 285]
7,50 to 75%,YFIDSTNLKTHF [peptide SEQ ID No 269]
8,50 to 75%,LYITEPKTI [peptide SEQ ID No 287]

# The remaining lines, values behind:
row,Binder,peptide exchange yield
1,AYVVFVSTL [peptide SEQ ID No 207],20 to 49%
2,IYATEAHVF [peptide SEQ ID No 201],50 to 75%
3,TYELRYFQI [peptide SEQ ID No 204],> 75%
4,YYKSTSSAF [peptide SEQ ID No 218],50 to 75%
5,VYWDSAGAAHF [peptide SEQ ID No 202],> 75%
6,TYKDEGNDYF [peptide SEQ ID No 209],50 to 75%
7,YYGPSLFLL [peptide SEQ ID No 200],50 to 75%
8,RYAEEVGIF [peptide SEQ ID No 199],50 to 75%
